{"source": "paper PMC5078848", "about": "“NtKRP, a kinesin-12 protein, regulates embryo/seed size and seed germination via involving in cell cycle progression at the G2/M transition” (Scientific Reports, 2016)", "molecules": {"B1": {"name": "NtKRP motor domain (recombinant motor protein, amino acids 1–556) (Nicotiana tabacum) (protein)", "chain": "MSENRFLGNISASSIRNLLPKSVSTKKKLNSSRFKHKMNSENVAPIDPNIQITDPPLLPTSSILKKPVVDTDYTSEDLTRSEALEQTLEAPDSPVKVVVRIRPANGNESGSQAVRKVSDTSVYVADRKFNFDMVFDSNSTQEDIFQSVGAPLVKDALAGYNTSLLAYGQTGSGKTYTMWGPPSSMVEVPSPIGLQGIVPRIFQTLFSSIQREQENSEGKQINYQCRCSFLEIYEEHIGDLLDPTQRNLKIMDDPRVGFYVENLTEEYVSTYEDVTQILIKGLSSRKVGSTNINSKSSRSHIVFTCIIESWCKESSSKCFGSSKMSRMNLVDLAGFERFIPDDASKLFVKEGKHVKKSTSQLGRLVNVLSERSQSGKFDDVSYSSSALTHLMRESLGGNAKLAVICAVTPENKHNSETISTLRFGKRVKLMPNEPLVNEISEDDVNGLSDQIRQLKEELIRARSSTSISVGSNGYFRGPNVRESLNQLRVSLNRSLILPSIDNDREEEIHINEDDIKELQLQIDNLRGSHGDNSKETLEKKDSLKYSSGESEHYLSC", "notes": "N-terminal motor domain fragment, residues 1-556 of 1194 (full length 134 kDa); recombinant"}}, "key": {"[1]": {"molecular_target": "T1, MBP-NtKRP-Motor (Nicotiana tabacum, UniProt A0A0D3QSP8)", "T1 construct": "gene KRP; MBP-tagged motor domain, purified; motor 1-556 elsewhere", "T1 sequence (A0A0D3QSP8 55-470 limits assumed)": "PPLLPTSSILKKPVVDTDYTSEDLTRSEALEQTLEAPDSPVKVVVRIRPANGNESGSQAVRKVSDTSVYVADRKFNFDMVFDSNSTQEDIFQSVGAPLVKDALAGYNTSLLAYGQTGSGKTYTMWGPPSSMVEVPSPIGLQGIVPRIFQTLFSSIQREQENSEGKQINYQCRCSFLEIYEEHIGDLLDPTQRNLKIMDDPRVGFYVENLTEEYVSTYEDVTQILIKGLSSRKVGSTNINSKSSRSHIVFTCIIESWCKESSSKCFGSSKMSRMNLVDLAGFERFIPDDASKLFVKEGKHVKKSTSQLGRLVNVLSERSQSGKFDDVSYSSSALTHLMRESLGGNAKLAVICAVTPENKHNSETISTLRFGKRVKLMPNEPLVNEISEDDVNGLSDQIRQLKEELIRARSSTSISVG", "assay": "microtubule co-sedimentation, SDS-PAGE", "format": "binding", "conditions": "taxol-stabilised microtubules, PEM buffer with 1 mM MgCl2, pH 6.8; nucleotide 5 µM"}, "[2]": {"molecular_target": "microtubules (polymerized tubulin, taxol-stabilised)"}, "[3]": {"molecular_target": "microtubules (polymerized tubulin, taxol-stabilised)", "assay": "co-sedimentation; 100 uL with 25 ug taxol-stabilised MTs and 50 ug NtKRP-motor in PEM buffer pH 6.8; without nucleotide, with ATP or with AMPPNP; room temperature 30 min, 25,000 x g 20 min at 25 C; SDS-PAGE of supernatant and pellet, Coomassie"}, "[4]": {"substrate": "Nc1ncnc2c1ncn2[C@@H]1O[C@H](COP(=O)(O)OP(=O)(O)OP(=O)(O)O)[C@@H](O)[C@H]1O", "assay": "isothermal titration calorimetry ATPase assay", "format": "biochemical, Nicotiana tabacum", "conditions": "microtubules 4.4 µM (Methods print 1.67 µM MTs), 10 µM taxol, BRB80 with 1 mM MgCl2, 50 mM NaCl, pH 6.8, 25 °C"}}, "data": [{"molecule": "Nc1ncnc2c1ncn2[C@@H]1O[C@H](COP(=O)(O)OP(=O)(O)OP(=O)(O)O)[C@@H](O)[C@H]1O", "note": "[ATP]", "values": [{"measurement": "microtubule co-sedimentation, SDS-PAGE", "setting": "[1]", "result": "The addition of ATP significantly reduced the amount of the fusion protein co-sediment"}]}, {"molecule": "recombinant NtKRP motor domain (amino acids 1–556) (domain or fragment)", "values": [{"measurement": "K0.5,MT of the MT-stimulated ATPase activity of the motor domain (coupled enzyme assay, 1 mM ATP, 0-5 uM MTs)", "setting": "[2]", "result": 22, "unit": "µM"}]}, {"molecule": "Nc1ncnc2c1ncn2[C@@H]1O[C@H](COP(=O)(O)OP(=O)(O)NP(=O)(O)O)[C@@H](O)[C@H]1O", "note": "[AMPPNP]", "values": [{"measurement": "microtubule co-sedimentation, SDS-PAGE", "setting": "[1]", "result": "nonhydrolyzable ATP analog AMPPNP was used in place of ATP, most of the fusion protein"}]}, {"molecule": "MBP-NtKRP motor domain fusion protein (domain or fragment)", "values": [{"measurement": "percent coprecipitated with MTs (absence of ATP)", "setting": "[3]", "result": 50, "unit": "%"}]}, {"molecule": "B1", "values": [{"measurement": "Km", "setting": "[4]", "result": 2.4, "unit": "µM"}, {"measurement": "kcat", "setting": "[4]", "result": 80.3, "unit": "s⁻¹"}]}]}
